Experimental data from patent US20240245805A1 (Orna Therapeutics, Inc., priority 2020, published 2024).

B1: Human enterovirus C105 (nucleic acid, listed as Enterovirus sp.)
DNA: CCCCTAGGATCCACTGGATGTCAGTACACTGGTATCGTGGTACCTTTGTACGCCTGTTTTATACCCCCTTCCCCGCAACTTTAGAAGCATCAAAAGCACCGCTCAATAGTCACCACACCCCCAGTGTGGTTTCGAGCAAGCACTTCTGTTTTCCCGGTTGCGTCCCATATGCTGTGCAAACGGCAAAAAGGGACAATATCGTTACCCGCTTGTATACTACGGGAAACCTAGTACCACCATTGATTGTGTTGAGAGTTGCGCTCATCACCTTTCCCCGGTGTAGCTCAGGCCGATGAGGCTCAGAATCCCCCACAGGTGACTGTGTCTGAGCCTGCGTTGGCGGCCTGCCCTCGCCTTATGGCGTGGGACGCTTGATACATGACATGGTGCGAAGAGTCTACTGTGCTATGCAAGAGTCCTCCGGCCCCTGAATGTGGCTAATCCTAACCACTGATCCCACGCACGCAAACCAGTGTGTAGTGGGTCGTAACGCGCAAGTCGGTGGCGGAACCAACTACTTTGGGTGACCGTGTTTCCTTTATTACTTATTGAATGTTTATGGTGACAATTGTTTGATTCAGTTGTTGCCATTCTCTACATTCATTTACCCAGCATCAAACCAATTGAACTGTTACA
B2: Wobbly possum disease virus (nucleic acid)
DNA: CGGCTGTGAGTGCTTAGCATATGCTAGAGTACTACAGCCGGGTGTTGGAGTCATATGCACTGGTTGCCTGTATAATAGTCGGGATCTGTCTGACCTACATTATCTTTGGGAGTTGCTTATCACGACAATTCTCGAAGTGTCTGTCGACAGCTTACCCCCGATTCGACAAGGCCCCTTGTCCACCGCAGACCTATCGATTTTCAACGAGAACACTATCAGAGGTTTAAATTTAAAACTCACCAACA
modifications: source: /note="Description of Unknown: Wobbly possum disease virus sequence"
B3: Apodemus agrarius picornavirus strain Longquan-Aa118 (nucleic acid)
DNA: TTACTCAGCGTAACTACTCCGGGTTACGTGATGAAGAAGAGGCTACGGAGATTCTCGGGCTACGGCCCTGGAGCCACTCCGGCTCCTAAAGATTTAGAAGTTTGAGCACACCCGCCCACTAGGGCCCCCCATCCAGGGGGGCAACGGGCAAGCACTTCTGTTTCCCCGGTATGATCTGATAGGCTGTAACCACGGCTGAAACAGAGATTATCGTTATCCGCTTCACTACTTCGAGAAGCCTAGTAATGATGGGTGAAATTGAATCCGTTGATCCGGTGTCTCCCCCACACCAGAAACTCATGATGAGGGTTGCCATCCCGGCTACGGCGACGTAGCGGGCATCCCTGCGCTGGCATGAGGCCTCTTAGGAGGACGGATGATATGGATCTTGTCGTGAAGAGCCTATTGAGCTAGTGTCGACTCCTCCGCCCCCGTGAATGCGGCTAATCCTAACCCCGGAGCAGGTGGGTCCAATCCAGGGCCTGGCCTGTCGTAATGCGTAAGTCTGGGACGGAACCGACTACTTTCGGGAAGGCGTGTTTCCATTTGTTCATTATTTGTGTGTTTATGGTGACAACTCTGGGTAAACGTTCTATTGCGTTTATTGAGAGATTCCCAACAATTGAACAAACGAGAACTACCTGTTTTATTAAATTTACACAGAGAAGAATTACA
modifications: source: /note="Description of Unknown: Apodemus agrarius picornavirus strain Longquan-Aa118 sequence"
B4: Picornavirales sp. isolate RtMruf-Pico V (nucleic acid)
DNA: TTTGCTCAGCGTAACTTCTCCGGGTTACGTGGAGACCAAAAGGCTACGGAGACTCGGGCTACGGCCCTGGAGCACCTAGGTGCTCCTAAAGACGTTAGAAGTTGTACAAACTCGCCCAATAGGGCCCCCCAACCAGGGGGGTAGCGGGCAAGCACTTCTGTTTCCCCGGTATGATCTCATAGGCTGTACCCACGGCTGAAAGAGAGATTATCGTTACCCGCCTCACTACTTCGAGAAGCCCAGTAATGGTTCATGAAGTTGATCTCGTTGACCCGGTGTTTCCCCCACACCAGAAACCTGTGATGGGGGTGGTCATCCCGGTCATGGCGACATGACGGACCTCCCCGCGCCGGCACAGGGCCTCTTCGGAGGACGAGTGACATGGATTCAACCGTGAAGAGCCTATTGAGCTAGTGTTGATTCCTCCGCCCCCGTGAATGCGGCTAATCCCAACTCCGGAGCAGGCGGGCCCAAACCAGGGTCTGGCCTGTCGTAACGCGAAAGTCTGGAGCGGAACCGACTACTTTCGGGAAGGCGTGTTTCCTTTTGTTCCTTTTATCAAGTTTTATGGTGACAACTCCTGGTAGACGTTTTATTGCGTTTATTGAGAGATTTCCAACAATTGAACAGACTAGAACCACTTGTTTTATCAAACCCTCACAGAATAAGATAACA
modifications: lipid formulation; source: /note="Description of Unknown: Picornavirales sp. isolate RtMruf-PicoV sequence"
B5: Avian orthoreovirus segment S1 (nucleic acid, listed as Avian orthoreovirus)
DNA: GCTTTTTCAATCCCTTGTGTCGATGTTCCCGTATGTCATCTGGTTCATGTAACGGTGCAACTTCTATTTTTGGTAACGTTCACTGTCAGGCAGCGCAAAACTCGGCGGGTGGTGATCTTCAAGCGACTTCCTCTCTTGTTGCTTATTGGCCCTACTTGGCTGCGGGCGGTGGTCTGCTCGTTGTTATTATTATAATTGTTGGCGCTGTTTGTTGTTGCAAGGCTAAGGTTAAAGCGGACGCAGCCCGAAACGTTTTCTACCGAGAGCTGTTCGCACTTAATTCGGGTAAAAGTGATGCAGGACCTCCGATTTACCAGGTTTAGTGTACGACGATTTGAGTTTTCACCTTTCGTCTTAGAGGAGTGCACTACTCCATCTTTCACGACTATAACTAATACCGATCCGGCTCTCTACTTTAACATTGAGTTTCCGTCAAGTCATCGTCTCTCCCCCTTCATTCCAGAACTGTTGTCTCAGCCTTGTACCGTTCACGTTTCATTGATTCGGAGATTCGCTCTCTGTGCAACCTTATCTAGTATTTGTGAATACGACTGTGCGCTACTGCCATCCATCAACGCTATTACGACGATCCCTACACCAGGTGCGTCATCATCTCTGATTGTTCATTGGG
B6: Yak enterovirus (nucleic acid, listed as Enterovirus sp.)
DNA: CTCCGGCACAGCCGCACCAGTGCACTGGTACGCTAGTACCTTTTCACGGGGTAGTCGGTATCCCCCCCCGTAACTTAGAAGCATGTAACAAACCGACCAATAGGTGCGCGGCAGCCAGCTGCGTTGCGGTCAAGCACTTCTGTCTCCCCGGTCCGCAAGGATCGTTACCCGCCCACTCCACTACGAGGAGCCTAGTAACTGGCCAAGTGATTGCGGAGTTGCGTTCAGCCACAACCCCAGTGGTAGCTCTGGAAGATGGGGCTCGCACATCCCCCGTGGTAACACGGTTGCTTGCCCGCGTGTGCTTCCGGGTTCAGTCTCCGACTGTTCACTTCAACATCACGCAACCAGCCAAGAGCCGATTGTGCTGGAGTGGTCTTCCTCCGGGGCCGTGAATGCTGCTAATCCTAACCTCCGAGCGTGTGCGCACAATCCAGTGTTGCTACGTCGTAACGCGTAAGTTGGAGGCGGAACAGACTACTTTCGGCACCCCGTGTTTCCTTTATTTTATTCTTATTTTATGGTGACAATTGCAGAGATTTGTGATATTGCGACTTTACCGTTAAACATAGCACTGCATTACCTGGTTGCATTCCACAAAACTTCAGAGATTCCTAGTTCCTACATTGACCTACTTGTTTATTTGAATCTTAAATACAAACTTGAGCAAGTGAA

The molecules below were run on HEK293 cells. Conditions: circular RNA encoding Gluc with the listed IRES (UTR truncated to 675 nt) transfected into HEK293 cells; supernatant after 24 hours.
Format: cell-based, human

Point of comparison: B6, “Expression (luminescence from secreted Gluc protein)” value 6.19E+06. Against it:
- B1 — lower, 5.49E+05
- B2 — lower, 2.60E+05
- B3 — higher, 1.90E+08
- B4 — higher, 2.26E+08
- B5 — lower, 4.37E+05
